Source: patent US20230348630A1 (BEIJING MABWORKS BIOTECH, published 2023)
Like-named read-outs stand apart in the source and are kept apart here.

T1: BCMA-his protein (Cat #: BCA-H522y, ACRO) (human, UniProt Q02223 1-54)
T1 construct: Bought recombinant protein; the construct is most likely only a soluble part of it; also called BCMA protein; human BCMA
T1 sequence: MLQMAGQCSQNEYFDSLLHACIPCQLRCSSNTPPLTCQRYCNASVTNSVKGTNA

T2: human BCMA on HEK293A/human BCMA cells (human, UniProt Q02223 1-184)
T2 sequence: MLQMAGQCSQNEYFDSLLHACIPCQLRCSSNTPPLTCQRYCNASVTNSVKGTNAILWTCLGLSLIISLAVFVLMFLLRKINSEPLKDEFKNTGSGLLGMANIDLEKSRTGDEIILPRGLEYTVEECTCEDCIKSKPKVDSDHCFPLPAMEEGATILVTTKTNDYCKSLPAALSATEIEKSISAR

T3: human TACI on HEK293A/human TACI cells (human, UniProt O14836 1-293)
T3 sequence: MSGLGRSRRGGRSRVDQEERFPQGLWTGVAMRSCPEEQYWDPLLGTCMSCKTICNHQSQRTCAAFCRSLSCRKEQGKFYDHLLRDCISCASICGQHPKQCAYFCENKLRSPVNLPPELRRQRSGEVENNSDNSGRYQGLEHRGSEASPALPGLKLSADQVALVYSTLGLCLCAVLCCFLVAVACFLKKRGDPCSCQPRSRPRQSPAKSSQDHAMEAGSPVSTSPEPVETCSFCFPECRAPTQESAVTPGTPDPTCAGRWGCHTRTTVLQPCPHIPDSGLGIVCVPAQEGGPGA

T4: mouse BCMA on HEK293A/mouse BCMA cells (mouse, UniProt O88472 1-185)
T4 sequence: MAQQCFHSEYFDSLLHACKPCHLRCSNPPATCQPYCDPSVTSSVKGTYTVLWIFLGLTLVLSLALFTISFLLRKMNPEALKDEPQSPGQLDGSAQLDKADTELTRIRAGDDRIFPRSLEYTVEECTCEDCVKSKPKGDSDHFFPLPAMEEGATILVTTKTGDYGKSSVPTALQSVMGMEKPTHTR

T5: human BAFFR on HEK293A/human BAFFR cells (human, UniProt Q96RJ3 1-184)
T5 sequence: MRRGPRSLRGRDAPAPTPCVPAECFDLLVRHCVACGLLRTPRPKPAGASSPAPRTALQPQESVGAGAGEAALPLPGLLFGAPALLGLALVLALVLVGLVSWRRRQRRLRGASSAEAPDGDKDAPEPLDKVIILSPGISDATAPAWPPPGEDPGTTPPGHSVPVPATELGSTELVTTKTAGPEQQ

B1: anti-BCMA antibody A6-3, full-length human IgG1/kappa (antibody, V domains shown)
VH: QVQLVQSGAEVKKPGASVKVSCKASGYTFTNHIIHWVRQAPGQGLEWMGYINPYPGYHGYNDKFSGRATMTSDTSTSTVYMELSSLRSEDTAVYYCARDGYYRDQDVLDYWGQGTLVTVSS
VL: DIQMTQSPSSLSASVGDRVTITCKASQDISQYLNWYQQKPGKAPKLLIYYTSGLHPGVPSRFSGSGSGTDFTFTISSLEPEDIATYYCQQGYALPWTFGQGTKVEIKR
notes: Expressed in HEK293F cells, purified on Protein A
B2: anti-CD3/BCMA bispecific antibody MBS305-L-KIH (bispecific antibody, human IgG1, kappa, L234A L235A, N297A)
heavy 1: QVQLVQSGAEVKKPGASVKVSCKASGYTFTNHIIHWVRQAPGQGLEWMGYINPYPGYHGYNDKFSGRATMTSDTSTSTVYMELSSLRSEDTAVYYCARDGYYRDQDVLDYWGQGTLVTVSSASTKGPSVFPLAPSSKSTSGGTAALGCLVKDYFPEPVTVSWNSGALTSGVHTFPAVLQSSGLYSLSSVVTVPSSSLGTQTYICNVNHKPSNTKVDKKVEPKSCDKTHTCPPCPAPEAAGGPSVFLFPPKPKDTLMISRTPEVTCVVVDVSHEDPEVKFNWYVDGVEVHNAKTKPREEQYASTYRVVSVLTVLHQDWLNGKEYKCKVSNKALPAPIEKTISKAKGQPREPQVYTLPPSREEMTKNQVSLSCAVKGFYPSDIAVEWESNGQPENNYKTTPPVLDSDGSFFLVSKLTVDKSRWQQGNVFSCSVMHEALHNHYTQKSLSLSPGK
light 1: not shown
heavy 2: QVQLVQSGAEVKKPGASVKVSCKASGYTFTNHIIHWVRQAPGQGLEWMGYINPYPGYHGYNDKFSGRATMTSDTSTSTVYMELSSLRSEDTAVYYCARDGYYRDQDVLDYWGQGTLVTVSSGGGGSGGGGSGGGGSGGGGSDIQMTQSPSSLSASVGDRVTITCKASQDISQYLNWYQQKPGKAPKLLIYYTSGLHPGVPSRFSGSGSGTDFTFTISSLEPEDEATYYCQQGYALPWTFGQGTKLTAKRGGGGSGGGGSGGGGSEVQLVESGGGLVQPGRSLRLSCAASGFTFGDYAMHWVRQAPGKGLEWVSGISWNHGHIGYADSVKGRFTISRDNAKKSLYLQMNSLRAEDTALYYCAKDNSGYGHYYYGMDVWGQGTTVTVASASTKGPSVFPLAPSSKSTSGGTAALGCLVKDYFPEPVTVSWNSGALTSGVHTFPAVLQSSGLYSLSSVVTVPSSSLGTQTYICNVNHKPSNTKVDKKVEPKSCDKTHTCPPCPAPEAAGGPSVFLFPPKPKDTLMISRTPEVTCVVVDVSHEDPEVKFNWYVDGVEVHNAKTKPREEQYASTYRVVSVLTVLHQDWLNGKEYKCKVSNKALPAPIEKTISKAKGQPREPQVYTLPPSREEMTKNQVSLWCLVKGFYPSDIAVEWESNGQPENNYKTTPPVLDSDGSFFLYSKLTVDKSRWQQGNVFSCSVMHEALHNHYTQKSLSLSPGK
light 2: not shown

Columns and labels:
[1] = biological target: T1, BCMA-his protein (Cat #: BCA-H522y, …); test: ELISA, coated BCMA protein
Description: (§1) Briefly, an ELISA plate was coated with 100 μl 1 μg/ml BCMA protein (Cat #: BCA-H522y, ACRO) in PBS overnight at 4° C. Then, the plate was blocked with 250 μl PBST with 4% skimmed milk at room temperature for 1 h. […] The negative control well was added with PBST instead of the antibody. The plate was washed with PBST for three times, added with 100 μl HRP conjugated goat anti-human IgG (1:7000, Cat #: 31413, thermofisher), and incubated at room temperature for 1 h. The plate was washed again with PBST for four times, added with 100 μl freshly prepared TMB (Cat #: 555214, BD, USA), and left still for color development, which was terminated with 50 μl 10% H₂SO₄. The absorbance was read at 450 nm, and the data was processed and analyzed using GraphPad.

[2] = biological target: T2, human BCMA on HEK293A/human BCMA cells; test: flow cytometry on HEK293A/human BCMA cells
Description: (§2) The anti-BCMA antibody's binding capability to cell surface BCMAs was tested by FACS. Briefly, HEK293A/human BCMA cells, HEK293A/monkey BCMA cells and HEK293A/mouse BCMA cells, as generated in Example 1, were collected, digested with trypsin, and subjected to centrifugation at 300 g for 5 min. The cells were suspended in PBS, and subjected to centrifugation again. The cells were re-suspended in PBS with 2% FBS at the cell density at 4×10⁶/ml, and 50 μl cells were seeded onto a U-bottom plate. […] The plate was washed with 2% FBS-PBS for three times, added with 50 μl PE-labeled goat-anti-human IgG (H+L) (1: 500), and incubated at room temperature for 45 min. The plate was washed with 2% FBS-PBS again for three times, and added with 150 μl 2% FBS-PBS to suspend the cells. The plate was measured for cell fluorescence using a cytometry, and the data was processed with FlowJo and analyzed with GraphPad.

[3] = biological target: T3, human TACI on HEK293A/human TACI cells; test: flow cytometry on HEK293A/human TACI cells
[4] = biological target: T4, mouse BCMA on HEK293A/mouse BCMA cells; test: flow cytometry on HEK293A/mouse BCMA cells
Description: as §2

[5] = biological target: T5, human BAFFR on HEK293A/human BAFFR cells; test: flow cytometry on HEK293A/human BAFFR cells
[6] = biological target: T6, monkey BCMA on HEK293A/monkey BCMA cells (monkey, UniProt Q02223 1-184 (human entry)); test: flow cytometry on HEK293A/monkey BCMA cells
Description: as §2

[7] = biological target: T2, human BCMA on HEK293A/human BCMA cells; test: flow cytometry on HEK293A/human BCMA cells, without soluble BCMA
Description: Briefly, 10⁵ HEK293A/human BCMA cells in 100 μl culture medium were seeded on a 96-well plate, and the plate […] After 1-h incubation at 4° C., the plate was washed with PBS for three times, added with APC-goat-anti-mouse IgG (1:500 dilution, Cat #: 405308, BioLegend, US), inducted at 4° C. for 1 h, washed with PBS for three times, and measured for cell fluorescence using a FACS analyzer (BD).

[8] = biological target: T1, BCMA-his protein (Cat #: BCA-H522y, …); test: SPR (BIAcore 8K), antibody captured by anti-human Fc, BCMA protein as analyte
Description: Briefly, the mouse anti-human Fc antibody (Cat #: BR100839, cytiva) was coupled to CMS biosensor chip. […] Chip regeneration was performed with 3 M MgCl₂.

[9] = biological target: T2, human BCMA on HEK293A/human BCMA cells; test: flow cytometry on HEK293A/human BCMA cells in the presence of 1 µg/ml soluble human BCMA-his protein
Description: Briefly, 10⁵ HEK293A/human BCMA cells in 100 μl culture medium were seeded on a 96-well plate, and the plate was further added with 50 μl serially diluted antibody or PBS followed by the human BCMA-his proteins (Cat #: 10620-H08H, Sino Biological) at the final concentration of 1 μg/ml. After 1-h incubation at 4° C., the plate was washed with PBS for three times, added with APC-goat-anti-mouse IgG (1:500 dilution, Cat #: 405308, BioLegend, US), inducted at 4° C. for 1 h, washed with PBS for three times, and measured for cell fluorescence using a FACS analyzer (BD).

[10] = biological target: T7, CD3D&E protein (Cat #: CT038-H2508H, Sino Biological) (human, UniProt P04234 22-105; P07766 23-126); test: ELISA, coated CD3D&E
T7 construct: Bought complex of the delta and epsilon chains; also called CD3D&E complex; human CD3D&E complex
Description: (§3) The purified bispecific antibodies were tested for their binding capability to recombinant human CD3 and human BCMA proteins by ELISA, following the protocols in Example 4 and Example 9.

[11] = biological target: T1, BCMA-his protein (Cat #: BCA-H522y, …); test: ELISA, coated BCMA protein; remark: listed apart in the source
Description: as §1, §3

CD3 on Jurkat cells = biological target: T8, CD3 on Jurkat cells (UniProt P04234 22-171; P07766 23-207); test: flow cytometry on Jurkat cells
T8 construct: whole, on cells
Description: Jurkat cells were collected, centrifuged at 300 g for 5 min, and suspended in PBS. After another centrifugation, the cells were suspended in 2% FBS-PBS at the cell density of 3×10⁶/ml, and […] were plated onto a U-bottom plate. The plate was added with 50 μl serially diluted anti-CD3 antibodies of the disclosure in 2% FBS-PBS (4-fold dilution, starting at 20 μg/ml), and incubated at room temperature for 1 h. The plate was washed with 2% FBS-PBS for three times, added with 50 μl PE-labeled goat-anti-human IgG (H+L) (1: 500), and incubated at room temperature for 45 min. The plate was washed with 2% FBS-PBS again for three times, and added with 150 μl 2% FBS-PBS to suspend the cells. The plate was measured for cell fluorescence using a cytometry, and the data was processed with FlowJo and analyzed with GraphPad.
Following the protocol of Example 11, the bispecific antibodies of the disclosure were tested for their binding capability to Jurkat cells.

[12] = biological target: T7, CD3D&E protein (Cat #: CT038-H2508H, …); test: SPR (BIAcore 8K), protocol of Example 10
Description: Following the protocols in Example 5 and Example 10, the bispecific antibodies of the disclosure were tested for their binding affinity to CD3D&E and human BCMA.

[13] = biological target: T2, human BCMA on HEK293A/human BCMA cells; test: flow cytometry on HEK293A/human BCMA cells; remark: listed apart in the source
Description: as §2
(§4) Following the protocol of Example 6, the bispecific antibodies of the disclosure were tested for their binding capability to the HEK293A/human BCMA cells, HEK293A/monkey BCMA cells, and HEK293A/mouse BCMA cells as generated in Example 1.

[14] = biological target: T6, monkey BCMA on HEK293A/monkey BCMA cells; test: flow cytometry on HEK293A/monkey BCMA cells; remark: listed apart in the source
Description: as §2, §4

[15] = biological target: T4, mouse BCMA on HEK293A/mouse BCMA cells; test: flow cytometry on HEK293A/mouse BCMA cells [continued) F]
Description: as §2, §4

T6 sequence (Q02223 other isoform, or with tags, fused parts or gaps): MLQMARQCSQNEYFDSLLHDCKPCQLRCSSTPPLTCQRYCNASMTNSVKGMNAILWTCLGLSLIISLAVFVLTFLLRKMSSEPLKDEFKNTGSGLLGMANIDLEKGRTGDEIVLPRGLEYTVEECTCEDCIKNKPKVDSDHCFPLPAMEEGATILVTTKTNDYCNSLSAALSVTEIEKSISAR
T7 sequence (P04234 22-105, form in doubt, chain 1 of 2): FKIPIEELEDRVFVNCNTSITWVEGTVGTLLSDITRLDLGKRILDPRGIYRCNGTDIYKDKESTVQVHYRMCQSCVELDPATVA
T7 sequence (P07766 23-126, form in doubt, chain 2 of 2): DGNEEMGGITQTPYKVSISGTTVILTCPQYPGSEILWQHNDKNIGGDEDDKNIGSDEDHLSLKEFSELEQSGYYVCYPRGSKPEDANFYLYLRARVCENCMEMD
T8 sequence (P04234 22-171, chain 1 of 2): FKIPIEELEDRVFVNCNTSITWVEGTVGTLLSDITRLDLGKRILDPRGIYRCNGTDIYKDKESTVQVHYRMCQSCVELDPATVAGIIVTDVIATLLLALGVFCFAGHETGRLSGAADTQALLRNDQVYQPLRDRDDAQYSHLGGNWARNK
T8 sequence (P07766 23-207, chain 2 of 2): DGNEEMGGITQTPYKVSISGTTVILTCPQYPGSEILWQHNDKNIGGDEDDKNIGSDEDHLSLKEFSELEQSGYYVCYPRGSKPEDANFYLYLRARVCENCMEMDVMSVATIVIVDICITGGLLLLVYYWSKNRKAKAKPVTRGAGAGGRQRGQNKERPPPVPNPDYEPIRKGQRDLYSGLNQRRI

Row | Binder | EC50 [1] [ng/mL] | EC50 [2] [µg/mL] | binding result [3] | binding result [4] | binding result [5] | EC50 [6] [µg/mL] | EC50 (read off the curve) [7] [ng/mL] | Kd [8] [nM] | EC50 (read off the curve) [9] [ng/mL] | EC50 [10] [µg/mL] | EC50 [11] [µg/mL] | EC50 (CD3 on Jurkat cells) [ng/mL] | Kd [12] [nM] | EC50 [13] [µg/mL] | EC50 [14] [µg/mL] | binding result [15]
1 | B1 | 7.33 | 0.0415 | no binding (tested: 100 µg/ml and 10 µg/ml) | no binding | no binding (tested: 100 µg/ml and 10 µg/ml) | 0.0986 | ~400 | 0.132 | ~1000 | – | – | – | – | – | – | –
2 | B2 | – | – | – | – | – | – | – | – | – | 0.267 | 0.0196 | 3.01 | 675 | 0.187 | 0.289 | no binding (tested: about 30000 ng/ml (LOG10 about 4.5))
